Measured values from the supplement of paper PMC10567573.

B1: PRKX (parent)
chain: KLLVVDRTRRLGNMKNGANDVKHH

Variants of: B1
Experiment: protein stability index of a GFP-peptide fusion (GPS, HEK-293T) (PSI 1-6); higher = more stable
Conditions: c terminus: a fixed tail appended
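Note: lentivirally expressed fusions sorted by FACS into six bins by GFP to DsRed ratio, PSI derived from sequencing read proportions per bin multiplied by bin number.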

Variant | protein stability index
KLLVVDRTRQLGNMKNGANDVKHH [R10Q] | 3.65
KLLVVDRTRRLGNMKNVANDVKHH [G17V] | 3.04
KLLVVDRTRRLGNMKNDANDVKHH [G17D] | 3.5
KLLVVDRTRRLGNMKNCANDVKHH [G17C] | 2.63
KLLVVDRTRRLGNMKNNANDVKHH [G17N] | 3.08
KLLVVDRTRRLGNMKNKANDVKHH [G17K] | 3.06
KLLVVDRTRRLGNMKNTANDVKHH [G17T] | 2.9
KLLVVDRTRRLGNMKNFANDVKHH [G17F] | 1.81
KLLVVDRTRRLGNMKNAANDVKHH [G17A] | 3.05
KLLVMDRTRRLGNMKNGANDVKHH [V5M] | 2.95
KLLVFDRTRRLGNMKNGANDVKHH [V5F] | 2.65
KLLVCDRTRRLGNMKNGANDVKHH [V5C] | 3.72
KLLVQDRTRRLGNMKNGANDVKHH [V5Q] | 3.11
KLLVRDRTRRLGNMKNGANDVKHH [V5R] | 3.31
KLLVEDRTRRLGNMKNGANDVKHH [V5E] | 4.08
KLLVVDRTRRLGWMKNGANDVKHH [N13W] | 2.6
KLLVVDRTRRLGQMKNGANDVKHH [N13Q] | 2.6
KLLVVDRTRRLGEMKNGANDVKHH [N13E] | 3.6
KLLVVDRTRRLGIMKNGANDVKHH [N13I] | 2.54
KLLVVDRTRRLGPMKNGANDVKHH [N13P] | 2.75
KLLVVDRTRRLGMMKNGANDVKHH [N13M] | 2.51
KLLVVDRTRRLGCMKNGANDVKHH [N13C] | 2.62
KLLVVDRTRRLGSMKNGANDVKHH [N13S] | 2.91
KLLVVDRTRRLENMKNGANDVKHH [G12E] | 3.38

Variant | protein stability index
KLLVVDRTRRLINMKNGANDVKHH [G12I] | 2.04
KLLVVDRTRRLQNMKNGANDVKHH [G12Q] | 3.19
KLLVVDRTRRLANMKNGANDVKHH [G12A] | 2.84
KLLVVDRTRRLRNMKNGANDVKHH [G12R] | 2.67
KLLVVDRTRRLPNMKNGANDVKHH [G12P] | 3.19
KLLVVDRTRRLHNMKNGANDVKHH [G12H] | 3
KLLVVDRTRRLYNMKNGANDVKHH [G12Y] | 2.5
KLLVVDRTRRLNNMKNGANDVKHH [G12N] | 2.6
KLLVVDRTRRLFNMKNGANDVKHH [G12F] | 2.51
KLLVVDRTRRLTNMKNGANDVKHH [G12T] | 2.95
KLLVVDRTRRLGNMKNGANDVKYH [H23Y] | 2.35
KLLVVDRTRRLGNMKNGANDVKVH [H23V] | 2.96
KLLVVDRTRRLGNMKNGANDVKWH [H23W] | 3.4
KLLVVDRTRRLGNMKNGANDVKGH [H23G] | 2.92
KLLVVDRTRRLGNMKNGANDVKIH [H23I] | 2.67
KLLVVDRTRRLGNMKNGANDVKFH [H23F] | 2.53
KLLVVDRTRRLGNMKNGANDVKKH [H23K] | 3.4
KLLVVDRTRRLGNMKNGANDVKDH [H23D] | 3.68
KLLVVDRTRRLGNMKNGANDVKAH [H23A] | 3.1
KLLVVCRTRRLGNMKNGANDVKHH [D6C] | 2.01
KLLVVQRTRRLGNMKNGANDVKHH [D6Q] | 2.03
KLLVVARTRRLGNMKNGANDVKHH [D6A] | 2.19
KLLVVVRTRRLGNMKNGANDVKHH [D6V] | 2.26
KLLVVWRTRRLGNMKNGANDVKHH [D6W] | 1.69

Variant | protein stability index
KLLVVIRTRRLGNMKNGANDVKHH [D6I] | 2.87
KLLVVLRTRRLGNMKNGANDVKHH [D6L] | 1.98
KLLVVPRTRRLGNMKNGANDVKHH [D6P] | 2.94
MLLVVDRTRRLGNMKNGANDVKHH [K1M] | 1.85
GLLVVDRTRRLGNMKNGANDVKHH [K1G] | 3.38
HLLVVDRTRRLGNMKNGANDVKHH [K1H] | 2.98
QLLVVDRTRRLGNMKNGANDVKHH [K1Q] | 3.37
VLLVVDRTRRLGNMKNGANDVKHH [K1V] | 1.82
SLLVVDRTRRLGNMKNGANDVKHH [K1S] | 3.51
PLLVVDRTRRLGNMKNGANDVKHH [K1P] | 3.63
KLLVVDRTRRTGNMKNGANDVKHH [L11T] | 3.47
KLLVVDRTRRHGNMKNGANDVKHH [L11H] | 3.64
KLLVVDRTRRKGNMKNGANDVKHH [L11K] | 2.93
KLLVVDRTRRFGNMKNGANDVKHH [L11F] | 2.93
KLLVVDRTRRPGNMKNGANDVKHH [L11P] | 3.57
KLLVVDRTRRNGNMKNGANDVKHH [L11N] | 3.6
KLLVVDRTRREGNMKNGANDVKHH [L11E] | 3.7
KLLVVDRTRRSGNMKNGANDVKHH [L11S] | 3.27
KLLVVDRTRRDGNMKNGANDVKHH [L11D] | 3.84
KLLVVDRTRRLGNMKNGANDKKHH [V21K] | 3.54
KLLVVDRTRRLGNMKNGANDLKHH [V21L] | 2.66
KLLVVDRTRRLGNMKNGANDEKHH [V21E] | 4.12
KLLVVDRTRRLGNMKNGANDRKHH [V21R] | 2.79
KLLVVDRTRRLGNMKNGAADVKHH [N19A] | 2.84

Variant | protein stability index
KLLVVDRTRRLGNMKNGAVDVKHH [N19V] | 2.64
KLLVVDRTRRLGNMKNGALDVKHH [N19L] | 2.47
KLLVVDRTRRLGNMKNGADDVKHH [N19D] | 3.12
KLLVVDRTRRLGNMKNGACDVKHH [N19C] | 2.66
KLLVVDRTRRLGNMKNGAGDVKHH [N19G] | 3.12
KLLVVDRTRRLGNMKNGAIDVKHH [N19I] | 2.29
KLLVVDRTRRLGNMKNGASDVKHH [N19S] | 3.16
KLLVVDRTRRLGNKKNGANDVKHH [M14K] | 3.85
KLLVVDRTRRLGNIKNGANDVKHH [M14I] | 3.31
KLLVVDRTRRLGNFKNGANDVKHH [M14F] | 2.99
KLLVVDRTRRLGNNKNGANDVKHH [M14N] | 3.67
KLLVVDRTRRLGNWKNGANDVKHH [M14W] | 2.62
KLLVVDRTRRLGNCKNGANDVKHH [M14C] | 2.85
KLLVVDRTRRLGNSKNGANDVKHH [M14S] | 3.37
KLLVVDRTRRLGNGKNGANDVKHH [M14G] | 3.74
KLLVVDRTRRLGNVKNGANDVKHH [M14V] | 3.22
KLLVVDRTRRLGNMKNGANDVKHC [H24C] | 3
KLLVVDRTRRLGNMKNGANDVKHV [H24V] | 2.65
KLLVVDRTRRLGNMKNGANDVKHP [H24P] | 2.91
KLLVVDRTRRLGNMKNGANDVKHN [H24N] | 2.81
KLLVVDRTRRLGNMKNGANDVKHD [H24D] | 3.4
KLLVVDRTRRLGNMKNGANDVKHY [H24Y] | 2.46
